Test results taken from patent US9636415B2, “Bispecific molecule binding TLR9 and CD32 and comprising a T cell epitope for treatment of allergies” (S-TARget therapeutics GmbH, priority 2006, dated 2017).

Legend:
[1] = test system: PBMC; assay: IFN and IL-4 ELISA in pooled PBMC culture supernatants after immunization with SG100; format: in vivo, rhesus monkey; conditions: positive control, data not shown; PBMC of SG100-immunized animals
Procedure: 5 healthy house dust mite (HDM) naïve rhesus monkeys were immunized 3× with SG100 (100 μg/shot) absorbed on Alum) on d0, d14 and d28. Blood samples were taken on d0 and d49 for T cell activation and antibody production.
Proliferation: PBMC ([…]) were cultured for 4 days (37° C./5% CO2/99% humidity) in 8 plex with medium, warhead (2 μg/ml), Immunogen (2 μg/ml), Der p1 (2 μg/ml), Der p2 (2 μg/ml), Der p5 (2 μg/ml) and Der p7 (2 μg/ml). As positive control Con A (Concanavaline A, Sigma) was used. Proliferation was measured by [3H]-thymidine (0.5 μCi/well) during the final 18 hrs of a 4 day culture. Cells were harvested for β-scintillation counting (Topcount NXT, Packerd, Ramsey, Minn., USA). Net counts per minutes were calculated by subtracting the counts of the medium control from the counts induced by the different antigens.
From each well of the 8plex stimulations of the proliferation experiment, 50 μl supernatant was taken after 24 h and pooled. The pooled supernatants were tested for the presence of IFN and IL-4 using commercially available ELISA kits from U-Cytech, Utrecht The Netherlands).

[2] = test system: human pDCs; assay: IFNα production of pDCs after stimulation with CpG targeted to CD32, AT10 or ScFV from IV.3 (Example 9); format: cell-based; conditions: CpG without targeting; p<0.04 resp. p<0.02
Procedure: Buffy coats were obtained from healthy volunteers according to institutional guidelines and pDCs were purified by positive isolation using anti-BDCA-4-conjugated magnetic microbeads (Miltenyi Biotec) and cultured in X-VIVO-15 medium (Cambrex) supplemented with 2% of decomplemented human AB+ serum. pDCs purity was routinely up to 95%, as assessed by double staining BDCA-2/CD123 (Miltenyi Biotec) in a FACS.
Subsequently, pDCs were incubated on ice for 15 minutes with either PBA, 5 μg/ml ODN-CpG C (M362, Axorra) in PBA or 5 μg/ml ODN-CpG C-3′-biotin in PBA (M362, Biosearch Technologies). Unbound ODN-CpG C was washed away three time with PBA and pDCs were cultured overnight (37° C., 5% CO2) in X-VIVO-15 medium (Cambrex), supplemented with 2% of decomplemented human AB+ serum. Supernatants were collected from pDC cultures after overnight stimulation, and IFNα production was analyzed with murine monoclonal capture and HRP-conjugated anti-IFNα antibodies (BenderMed systems) using standard ELISA procedures.

[3] = test system: pDCS in PBMC; assay: IL-6 and TNFα production after stimulation with CpG targeted to CD32 by aCD32a peptide (Example 10); format: cell-based, human; conditions: CpG without targeting
Procedure: Buffy coats were obtained from the Red Cross Austria. Cells were separated on ficoll hypack.
Freshly isolated PBMC's were incubated with 200 μg/ml aCD32a peptide published by Berntzen et al (J. Biol. Chem. (2009) 284:1126-1135; sequence ADGAWAWVWLTETAVGAAK-biotin, SEQ ID NO:68) in PBA (PBS containing 5% BSA) on ice for 30 minutes and washed twice with PBA, followed by an incubation with 10 μg/ml streptavidin in PBA on ice for 30 minutes and two times washing with PBA. Subsequently, PBMC's were incubated on ice for 15 minutes with either PBA, 5 μg/ml ODN-CpG C (M362, Axorra) in PBA or 5 μg/ml ODN-CpG C-3′-biotin in PBA (M362, Girindus). Unbound ODN-CpG C was washed away three time with PBA and PBMCs were cultured overnight (37° C., 5% CO2) in X-VIVO-15 medium (Cambrex), supplemented with 2% of decomplemented human AB+ serum. Supernatants were collected from PBMC cultures after overnight stimulation, and […] was analyzed with murine monoclonal capture and HRP-conjugated anti-IL-6 or TNF^L antibodies (BenderMed systems) using standard ELISA procedures.

[4] = test system: mice; assay: IgG1 and IgG2a ELISA after s.c. immunization of mice with ScFV-1-coil or warhead; format: in vivo, mouse; conditions: day 28, s.c. 2x 35 μg d0, d14
Procedure: 24 mice (6/group) were immunized s.c. 2× with 35 μg in 150 μl ScFV-1-coil or with warhead (ScFV-1-coil-M362) either formulated on Alum or diluted in PBS. Immunizations were done on d0, and d14, sera were taken on d0 (before immunization) and d28 and analyzed for IgG1 and IgG2a against ScFV-1-coil (indicated as ScFV) and mAb IV.3 by standard ELISA.

[5] = independent of the presence of Alum

Concanavaline A [Con A]
IL-4 after stimulation with Con A [1]: IL-4 was seen

TCGTCGTCGTTCGAACGACGTTGAT (chemistry not fully specified) [CpG standard, CpG class C oligodeoxynucleotide, TLR9 agonist, used without targeting]
potency of IFNα induction compared to CpG targeted to CD32 [2]: significantly less potent | IL-6 production: times less potent than CpG targeted to CD32 [3]: ~75 times

B1: warhead (conjugate)
scFv: EVQLQQSGPELKKPGETVKISCKASGYTFTNYGMNWVKQAPGKGLKWMGWLNTYTGESIYPDDFKGRFAFSSETSASTAYLQINNLKNEDMATYFCARGDYGYDDPLDYWGQGTSVTVSSGGGGSGGGGSGGGGSDIVMTQAAPSVPVTPGESVSISCRSSKSLLHTNGNTYLHWFLQRPGQSPQLLIYRMSVLASGVPDRFSGSGSGTAFTLSISRVEAEDVGVFYCMQHLEYPLTFGAGTKLELKGSISAWSHPQFEKGPEVSALEKEVSALEKEVSALEKEVSALEKEVSALEK
IgG1 response to ScFV-1-coil [4, 5]: strong | IgG1 response to mAb IV.3 [4, 5]: strong | IgG2 response to ScFV-1-coil [4, 5]: strong | IgG2 response to mAb IV.3 [4, 5]: strong

B2: ScFV-1-coil: ScFV derived from mAb IV.3 with pepE coil plus StrepTag II (SEQ ID 93) (protein)
scFv: B1 scFv
modifications: ScFV
IgG2a response ([4]; on Alum or in PBS): no IgG2a response was induced | IgG1 response against ScFV-1-coil ([4]; only in the presence of Alum): induced an IgG1 response
